Consider two molecules from publication PMC8951541, “Sunflower WRINKLED1 Plays a Key Role in Transcriptional Regulation of Oil Biosynthesis”.

Series [1] concerns the target T1, His-HaWRI1(52-234), AP2 domain (Helianthus annuus, UniProt A0A251SM13 52-234). Put plainly: competition; 10x to 60x unlabeled probe against biotin-labeled N1 (EMSA); EMSA: 15 mM HEPES-KOH pH 7.5, 7.5 mM KCl, 0.5 mM EDTA, 5% glycerol, 2 mM DTT, 1 ug/uL BSA, 0.05 ug/uL poly(dI-dC), 20 uL, on ice 30 min; 5% native PAGE. To be noted: protein: recombinant; tags: 6xHis (pET41a-6xHis vector); label: none.

Series [2] deals with T1, His-HaWRI1(52-234), AP2 domain. Put plainly: EMSA; poly(dI-dC) 0.05 ug/uL; 280 ng protein; 2 fmol/uL probe; EMSA: 15 mM HEPES-KOH pH 7.5, 7.5 mM KCl, 0.5 mM EDTA, 5% glycerol, 2 mM DTT, 1 ug/uL BSA, 0.05 ug/uL poly(dI-dC), 20 uL, on ice 30 min; 5% native PAGE. The note with it: protein: recombinant; tags: 6xHis (pET41a-6xHis vector); label: 5' biotin. (In general: A gel shift assay detects complexes by their altered migration in electrophoresis.)

T1 sequence (A0A251SM13 entry or part of it): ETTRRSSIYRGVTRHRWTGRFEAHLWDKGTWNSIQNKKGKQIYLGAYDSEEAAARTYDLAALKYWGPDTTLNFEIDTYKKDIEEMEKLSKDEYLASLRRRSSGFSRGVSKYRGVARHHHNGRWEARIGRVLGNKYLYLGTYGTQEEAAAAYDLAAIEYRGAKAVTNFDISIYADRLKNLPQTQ

B1: proBCCP2 AW-box cold probe (dsDNA)
DNA 1: TACTTCCTCGGTTTCATCGTCCAC
DNA 2: GTGGACGATGAAACCGAGGAAGTA
With B1, in series [1], the binding result was “binds”.

B2: proBCCP2 AW-box probe (dsDNA)
DNA 1: TACTTCCTCGGTTTCATCGTCCAC
DNA 2: GTGGACGATGAAACCGAGGAAGTA
Take B2: the binding result in series [2] is “binds”.
